{
  "source": "the Human Domainome abundance scans (Beltran et al. 2025)",
  "note": "± gives the uncertainty stated by the source.",
  "data": [
    {"assay": "abundance fitness (aPCA) (normalised: wild type 0, dead -1); higher = more abundant; growth selection in yeast, the domain comes from the species named", "conditions": "Homo sapiens", "values": [
      {"substance": "Lipoamide acyltransferase component of branched-chain alpha-keto acid dehydrogenase complex, mitochondrial G193A, P11182", "abundance fitness": "-0.199 ± 0.039"},
      {"substance": "Lipoamide acyltransferase component of branched-chain alpha-keto acid dehydrogenase complex, mitochondrial T171M, P11182", "abundance fitness": "0.031 ± 0.062"},
      {"substance": "Lipoamide acyltransferase component of branched-chain alpha-keto acid dehydrogenase complex, mitochondrial I186W, P11182", "abundance fitness": "-1.05 ± 0.094"},
      {"substance": "Lipoamide acyltransferase component of branched-chain alpha-keto acid dehydrogenase complex, mitochondrial S189K, P11182", "abundance fitness": "-0.135 ± 0.068"},
      {"substance": "Lipoamide acyltransferase component of branched-chain alpha-keto acid dehydrogenase complex, mitochondrial L209A, P11182", "abundance fitness": "0.037 ± 0.043"},
      {"substance": "Lipoamide acyltransferase component of branched-chain alpha-keto acid dehydrogenase complex, mitochondrial G198E, P11182", "abundance fitness": "-0.506 ± 0.052"},
      {"substance": "Lipoamide acyltransferase component of branched-chain alpha-keto acid dehydrogenase complex, mitochondrial V177P, P11182", "abundance fitness": "-0.64 ± 0.08"},
      {"substance": "Lipoamide acyltransferase component of branched-chain alpha-keto acid dehydrogenase complex, mitochondrial Q212E, P11182", "abundance fitness": "0.02 ± 0.043"},
      {"substance": "Lipoamide acyltransferase component of branched-chain alpha-keto acid dehydrogenase complex, mitochondrial V191Y, P11182", "abundance fitness": "-0.772 ± 0.067"},
      {"substance": "Nanos homolog 2 H74A, P60321", "abundance fitness": "-0.238 ± 0.12"},
      {"substance": "Lipoamide acyltransferase component of branched-chain alpha-keto acid dehydrogenase complex, mitochondrial L206R, P11182", "abundance fitness": "-0.071 ± 0.035"},
      {"substance": "Lipoamide acyltransferase component of branched-chain alpha-keto acid dehydrogenase complex, mitochondrial G214E, P11182", "abundance fitness": "0.135 ± 0.12"},
      {"substance": "Lipoamide acyltransferase component of branched-chain alpha-keto acid dehydrogenase complex, mitochondrial K187L, P11182", "abundance fitness": "-0.126 ± 0.053"},
      {"substance": "Lipoamide acyltransferase component of branched-chain alpha-keto acid dehydrogenase complex, mitochondrial T213K, P11182", "abundance fitness": "0.145 ± 0.071"},
      {"substance": "Lipoamide acyltransferase component of branched-chain alpha-keto acid dehydrogenase complex, mitochondrial G193Y, P11182", "abundance fitness": "-1.02 ± 0.26"},
      {"substance": "Lipoamide acyltransferase component of branched-chain alpha-keto acid dehydrogenase complex, mitochondrial N184S, P11182", "abundance fitness": "0.168 ± 0.38"},
      {"substance": "Lipoamide acyltransferase component of branched-chain alpha-keto acid dehydrogenase complex, mitochondrial E190K, P11182", "abundance fitness": "-0.178 ± 0.056"},
      {"substance": "Lipoamide acyltransferase component of branched-chain alpha-keto acid dehydrogenase complex, mitochondrial Q212D, P11182", "abundance fitness": "-0.009 ± 0.13"},
      {"substance": "Lipoamide acyltransferase component of branched-chain alpha-keto acid dehydrogenase complex, mitochondrial A176Y, P11182", "abundance fitness": "-0.16 ± 0.06"},
      {"substance": "Lipoamide acyltransferase component of branched-chain alpha-keto acid dehydrogenase complex, mitochondrial V191T, P11182", "abundance fitness": "-0.696 ± 0.079"},
      {"substance": "Lipoamide acyltransferase component of branched-chain alpha-keto acid dehydrogenase complex, mitochondrial S194E, P11182", "abundance fitness": "-0.504 ± 0.049"},
      {"substance": "Lipoamide acyltransferase component of branched-chain alpha-keto acid dehydrogenase complex, mitochondrial L188D, P11182", "abundance fitness": "-0.535 ± 0.071"},
      {"substance": "Lipoamide acyltransferase component of branched-chain alpha-keto acid dehydrogenase complex, mitochondrial Q212K, P11182", "abundance fitness": "0.007 ± 0.061"},
      {"substance": "Lipoamide acyltransferase component of branched-chain alpha-keto acid dehydrogenase complex, mitochondrial T171P, P11182", "abundance fitness": "-0.422 ± 0.11"},
      {"substance": "Lipoamide acyltransferase component of branched-chain alpha-keto acid dehydrogenase complex, mitochondrial S189L, P11182", "abundance fitness": "-0.45 ± 0.046"},
      {"substance": "Lipoamide acyltransferase component of branched-chain alpha-keto acid dehydrogenase complex, mitochondrial D204R, P11182", "abundance fitness": "-1.07 ± 0.047"},
      {"substance": "Lipoamide acyltransferase component of branched-chain alpha-keto acid dehydrogenase complex, mitochondrial G198T, P11182", "abundance fitness": "-0.647 ± 0.078"},
      {"substance": "Lipoamide acyltransferase component of branched-chain alpha-keto acid dehydrogenase complex, mitochondrial E210H, P11182", "abundance fitness": "-0.319 ± 0.15"},
      {"substance": "Lipoamide acyltransferase component of branched-chain alpha-keto acid dehydrogenase complex, mitochondrial I205A, P11182", "abundance fitness": "-0.356 ± 0.041"},
      {"substance": "Lipoamide acyltransferase component of branched-chain alpha-keto acid dehydrogenase complex, mitochondrial E190L, P11182", "abundance fitness": "-0.186 ± 0.042"},
      {"substance": "Lipoamide acyltransferase component of branched-chain alpha-keto acid dehydrogenase complex, mitochondrial V177R, P11182", "abundance fitness": "-0.802 ± 0.043"},
      {"substance": "Lipoamide acyltransferase component of branched-chain alpha-keto acid dehydrogenase complex, mitochondrial D204L, P11182", "abundance fitness": "-1.26 ± 0.1"},
      {"substance": "Lipoamide acyltransferase component of branched-chain alpha-keto acid dehydrogenase complex, mitochondrial L188T, P11182", "abundance fitness": "-0.519 ± 0.07"},
      {"substance": "Lipoamide acyltransferase component of branched-chain alpha-keto acid dehydrogenase complex, mitochondrial I200C, P11182", "abundance fitness": "-0.589 ± 0.062"},
      {"substance": "Lipoamide acyltransferase component of branched-chain alpha-keto acid dehydrogenase complex, mitochondrial A173N, P11182", "abundance fitness": "-0.424 ± 0.14"}
    ]}
  ]
}
